Paper PMC2756588

T1: Abp1, P15891
T1 sequence (P15891 535-592, looked up): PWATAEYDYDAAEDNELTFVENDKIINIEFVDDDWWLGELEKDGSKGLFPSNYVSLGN

T2: Bud14, P27637
T2 sequence (P27637 247-328, looked up): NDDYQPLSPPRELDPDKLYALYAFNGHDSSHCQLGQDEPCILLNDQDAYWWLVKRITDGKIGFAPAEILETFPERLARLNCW

T3: Sla1-2, P32790
T3 sequence (P32790 60-140, looked up): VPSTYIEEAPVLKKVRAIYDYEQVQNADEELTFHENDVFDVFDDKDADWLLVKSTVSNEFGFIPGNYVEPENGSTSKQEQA

T4: Lsb3, P43603
T4 sequence (P43603 385-451, looked up): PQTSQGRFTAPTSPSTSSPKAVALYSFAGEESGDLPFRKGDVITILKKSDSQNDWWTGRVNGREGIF

T5: Boi1, P38041
T5 sequence (P38041 1-86, looked up): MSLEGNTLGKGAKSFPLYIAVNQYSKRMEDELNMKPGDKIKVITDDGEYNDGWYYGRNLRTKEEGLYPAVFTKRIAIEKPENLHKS

T6: Nbp2, Q12163
T6 sequence (Q12163 103-180, looked up): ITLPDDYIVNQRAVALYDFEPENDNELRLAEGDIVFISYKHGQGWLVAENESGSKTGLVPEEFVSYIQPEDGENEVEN

T7: Lsb4, P32793
T7 sequence (P32793 402-468, looked up): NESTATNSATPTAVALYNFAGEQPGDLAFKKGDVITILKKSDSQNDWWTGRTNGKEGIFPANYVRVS

T8: Hse1, P38753
T8 sequence (P38753 208-285, looked up): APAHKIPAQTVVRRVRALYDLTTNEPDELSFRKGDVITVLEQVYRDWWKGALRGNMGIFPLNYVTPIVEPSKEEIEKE

T9: Bbc1, P47068
T9 sequence (P47068 1-78, looked up): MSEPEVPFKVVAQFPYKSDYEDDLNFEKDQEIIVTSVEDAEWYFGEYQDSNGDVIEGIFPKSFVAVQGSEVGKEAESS

T10: Boi2, P39969
T10 sequence (P39969 32-116, looked up): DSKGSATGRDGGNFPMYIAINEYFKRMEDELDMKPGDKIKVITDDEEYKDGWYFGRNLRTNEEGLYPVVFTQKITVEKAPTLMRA

T11: Cdc25, P04821
T11 sequence (P04821 50-136, looked up): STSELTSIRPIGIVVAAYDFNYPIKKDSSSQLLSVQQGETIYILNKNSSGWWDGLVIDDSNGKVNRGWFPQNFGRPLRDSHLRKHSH

T12: Lsb1, P53281
T12 sequence (P53281 45-122, looked up): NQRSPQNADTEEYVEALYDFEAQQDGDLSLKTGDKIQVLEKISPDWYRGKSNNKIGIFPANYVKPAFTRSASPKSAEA

T13: Hof1, Q05080
T13 sequence (Q05080 590-669, looked up): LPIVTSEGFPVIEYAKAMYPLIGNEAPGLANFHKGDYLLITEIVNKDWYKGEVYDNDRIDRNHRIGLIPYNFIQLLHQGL

T14: Pex13, P80667
T14 sequence (P80667 295-386, looked up): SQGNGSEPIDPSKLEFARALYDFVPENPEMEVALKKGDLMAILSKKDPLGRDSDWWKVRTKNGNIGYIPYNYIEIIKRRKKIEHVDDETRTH

T15: Bzz1-1, P38822
T15 sequence (P38822 478-572, looked up): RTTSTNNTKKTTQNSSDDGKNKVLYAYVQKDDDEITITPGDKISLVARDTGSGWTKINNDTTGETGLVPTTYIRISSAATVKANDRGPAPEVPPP

T16: Pin3, Q06449
T16 sequence (Q06449 53-122, looked up): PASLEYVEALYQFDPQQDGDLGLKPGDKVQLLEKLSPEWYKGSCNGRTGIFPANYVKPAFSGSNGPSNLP

T17: Cyk3, Q07533
T17 sequence (Q07533 1-83, looked up): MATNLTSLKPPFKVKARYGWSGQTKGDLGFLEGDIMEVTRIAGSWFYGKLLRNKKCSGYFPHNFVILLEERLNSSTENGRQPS

T18: Sla1-3, P32790
T18 sequence (P32790 344-424, looked up): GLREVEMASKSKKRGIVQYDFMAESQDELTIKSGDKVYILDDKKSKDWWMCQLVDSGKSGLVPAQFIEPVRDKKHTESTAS

T19: Myo5, Q04439
T19 sequence (Q04439 1072-1160, looked up): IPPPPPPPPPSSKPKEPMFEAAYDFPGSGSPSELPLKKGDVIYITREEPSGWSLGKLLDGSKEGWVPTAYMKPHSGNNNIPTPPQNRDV

T20: Fus1, P11710
T20 sequence (P11710 432-512, looked up): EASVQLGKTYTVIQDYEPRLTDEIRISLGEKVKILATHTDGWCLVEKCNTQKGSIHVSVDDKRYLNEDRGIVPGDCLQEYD

T21: Bzz1-2, P38822
T21 sequence (P38822 568-633, looked up): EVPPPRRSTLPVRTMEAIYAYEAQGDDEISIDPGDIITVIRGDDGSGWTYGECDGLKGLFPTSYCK


Assays:
Assay in all cases: SPOT array
Abp1, P15891 = biological target: T1, Abp1, P15891; settings: median of control spots 935
Bud14, P27637 = biological target: T2, Bud14, P27637; settings: median of control spots 956
Sla1-2, P32790 = biological target: T3, Sla1-2, P32790; settings: median of control spots 712
Bem1-2, P29366 = settings: median of control spots 4347
Sho1, P40073 = settings: median of control spots 1148
Lsb3, P43603 = biological target: T4, Lsb3, P43603; settings: median of control spots 406
Boi1, P38041 = biological target: T5, Boi1, P38041; settings: median of control spots 1162
Nbp2, Q12163 = biological target: T6, Nbp2, Q12163; settings: median of control spots 357
Myo3, P36006 = settings: median of control spots 468
Lsb4, P32793 = biological target: T7, Lsb4, P32793; settings: median of control spots 397
Hse1, P38753 = biological target: T8, Hse1, P38753; settings: median of control spots 1727
Bbc1, P47068 = biological target: T9, Bbc1, P47068; settings: median of control spots 796
Boi2, P39969 = biological target: T10, Boi2, P39969; settings: median of control spots 1161
Cdc25, P04821 = biological target: T11, Cdc25, P04821; settings: median of control spots 969
Rvs167, P39743 = settings: median of control spots 2707
Lsb1, P53281 = biological target: T12, Lsb1, P53281; settings: median of control spots 388
Hof1, Q05080 = biological target: T13, Hof1, Q05080; settings: median of control spots 4086
Pex13, P80667 = biological target: T14, Pex13, P80667; settings: median of control spots 1341
Bzz1-1, P38822 = biological target: T15, Bzz1-1, P38822; settings: median of control spots 4446
Pin3, Q06449 = biological target: T16, Pin3, Q06449; settings: median of control spots 2171
Cyk3, Q07533 = biological target: T17, Cyk3, Q07533; settings: median of control spots 1451
GST = settings: median of control spots 978
Sla1-3, P32790 = biological target: T18, Sla1-3, P32790; settings: median of control spots 5475
Myo5, Q04439 = biological target: T19, Myo5, Q04439; settings: median of control spots 471
Fus1, P11710 = biological target: T20, Fus1, P11710; settings: median of control spots 1200
Bzz1-2, P38822 = biological target: T21, Bzz1-2, P38822; settings: median of control spots 4538
Bem1-1, P29366 = settings: median of control spots 4282
Bem1-1, P29366, sequence (P29366 55-141): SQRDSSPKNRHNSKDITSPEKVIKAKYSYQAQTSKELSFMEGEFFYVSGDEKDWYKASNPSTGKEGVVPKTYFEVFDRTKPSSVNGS

Rvs167, P39743, sequence (P39743 419-482): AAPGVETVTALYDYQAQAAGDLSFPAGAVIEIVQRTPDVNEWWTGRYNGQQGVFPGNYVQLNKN
Sho1, P40073, sequence (P40073 287-367): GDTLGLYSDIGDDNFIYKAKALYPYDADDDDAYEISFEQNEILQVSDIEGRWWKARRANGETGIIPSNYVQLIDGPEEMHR
Bem1-2, P29366, sequence (P29366 139-227): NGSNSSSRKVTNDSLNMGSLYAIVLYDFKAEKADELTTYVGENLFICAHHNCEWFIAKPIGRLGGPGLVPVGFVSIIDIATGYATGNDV

Row | Binder | SPOT intensity (Abp1, P15891) | SPOT intensity (Bud14, P27637) | SPOT intensity (Sla1-2, P32790) | SPOT intensity (Bem1-2, P29366) | SPOT intensity (Sho1, P40073) | SPOT intensity (Lsb3, P43603) | SPOT intensity (Boi1, P38041) | SPOT intensity (Nbp2, Q12163) | SPOT intensity (Myo3, P36006) | SPOT intensity (Lsb4, P32793) | SPOT intensity (Hse1, P38753) | SPOT intensity (Bbc1, P47068) | SPOT intensity (Boi2, P39969) | SPOT intensity (Cdc25, P04821) | SPOT intensity (Rvs167, P39743) | SPOT intensity (Lsb1, P53281) | SPOT intensity (Hof1, Q05080) | SPOT intensity (Pex13, P80667) | SPOT intensity (Bzz1-1, P38822) | SPOT intensity (Pin3, Q06449) | further results
1 | YYNRQELALPKRMSS | 14 | 3 | 2 | 0 | 9 | 24 | 1 | 1 | 11 | 45 | 2 | 8 | 1 | 0 | 21 | 819 | 1 | 16 | 0 | 327 | SPOT intensity (Cyk3, Q07533): 3; SPOT intensity (GST): 3; SPOT intensity (Sla1-3, P32790): 7; SPOT intensity (Myo5, Q04439): 5; SPOT intensity (Fus1, P11710): 6; SPOT intensity (Bzz1-2, P38822): 4; SPOT intensity (Bem1-1, P29366): 0
2 | YSRKKLPVVLSKMTL | 64 | 3 | 4 | 0 | 47 | 1 | 0 | 0 | 1 | 0 | 1 | 18 | 1 | 0 | 2 | 888 | 2 | 8 | 1 | 20 | SPOT intensity (Cyk3, Q07533): 1; SPOT intensity (GST): 2; SPOT intensity (Sla1-3, P32790): 12; SPOT intensity (Myo5, Q04439): 4; SPOT intensity (Fus1, P11710): 2; SPOT intensity (Bzz1-2, P38822): 0; SPOT intensity (Bem1-1, P29366): 1
3 | KWVRRPKLMTPLTFS | 67 | 11 | 0 | 5 | 19 | 5 | 1 | 3 | 6 | 2 | 16 | 38 | 0 | 0 | 0 | 355 | 8 | 6 | 1 | 53 | SPOT intensity (Cyk3, Q07533): 1; SPOT intensity (GST): 1; SPOT intensity (Sla1-3, P32790): 44; SPOT intensity (Myo5, Q04439): 6; SPOT intensity (Fus1, P11710): 54; SPOT intensity (Bzz1-2, P38822): 0; SPOT intensity (Bem1-1, P29366): 0
4 | NQARKPFLLPATELS | 18 | 19 | 1 | 1 | 38 | 0 | 3 | 4 | 1 | 0 | 4 | 30 | 0 | 16 | 0 | 576 | 5 | 0 | 0 | 4 | SPOT intensity (Cyk3, Q07533): 3; SPOT intensity (GST): 2; SPOT intensity (Sla1-3, P32790): 2; SPOT intensity (Myo5, Q04439): 1; SPOT intensity (Fus1, P11710): 0; SPOT intensity (Bzz1-2, P38822): 0; SPOT intensity (Bem1-1, P29366): 0
5 | SRQAIPPPVPNRPGG | 24 | 0 | 0 | 3 | 14 | 658 | 0 | 1 | 63 | 373 | 22 | 247 | 0 | 0 | 833 | 1590 | 1 | 133 | 3 | 55 | SPOT intensity (Cyk3, Q07533): 1; SPOT intensity (GST): 0; SPOT intensity (Sla1-3, P32790): 3; SPOT intensity (Myo5, Q04439): 21; SPOT intensity (Fus1, P11710): 1; SPOT intensity (Bzz1-2, P38822): 0; SPOT intensity (Bem1-1, P29366): 1
6 | NRPAIRIPSLKKPAL | 74 | 13 | 0 | 12 | 39 | 0 | 1 | 2 | 3 | 6 | 20 | 40 | 0 | 5 | 0 | 467 | 13 | 5 | 3 | 9 | SPOT intensity (Cyk3, Q07533): 0; SPOT intensity (GST): 1; SPOT intensity (Sla1-3, P32790): 14; SPOT intensity (Myo5, Q04439): 2; SPOT intensity (Fus1, P11710): 1; SPOT intensity (Bzz1-2, P38822): 0; SPOT intensity (Bem1-1, P29366): 1
